Experiments:
[1] = target: T1, TPP-2607, TweakR-ECD-34-68-hIgGFc-His-S37A (human); experiment: alanine scan ELISA: IgG coated 1 µg/ml, HEK293 supernatant of TWEAKR(34-68)-Fc construct, anti-HIS-HRP
T1 construct: Used as HEK293 supernatant; also called S37A mutein

[2] = target: T2, TPP-2608, TweakR-ECD-34-68-hIgGFc-His-R38A (human); experiment: as above
T2 construct: Used as HEK293 supernatant; also called R38A mutein

[3] = target: T3, TPP-2609, TweakR-ECD-34-68-hIgGFc-His-S40A (human); experiment: as above
T3 construct: Used as HEK293 supernatant; also called S40A mutein

[4] = target: T4, TPP-2610, TweakR-ECD-34-68-hIgGFc-His-S41A (human); experiment: as above
T4 construct: Used as HEK293 supernatant; also called S41A mutein

[5] = target: T5, TPP-2611, TweakR-ECD-34-68-hIgGFc-His-W42A (human); experiment: as above
T5 construct: Used as HEK293 supernatant; also called W42A mutein (34-68)

[6] = target: T6, TPP-2612, TweakR-ECD-34-68-hIgGFc-His-S43A (human); experiment: as above
T6 construct: Used as HEK293 supernatant; also called S43A mutein

[7] = target: T7, TPP-2613, TweakR-ECD-34-68-hIgGFc-His-D45A (human); experiment: as above
T7 construct: Used as HEK293 supernatant; also called D45A mutein

[8] = target: T8, TPP-2615, TweakR-ECD-34-68-hIgGFc-His-K48A (human); experiment: as above
T8 construct: Used as HEK293 supernatant; also called K48A mutein

[9] = target: T9, TPP-2616, TweakR-ECD-34-68-hIgGFc-His-D51A (human); experiment: as above
T9 construct: Used as HEK293 supernatant; also called D51A mutein

[10] = target: T10, TPP-2617, TweakR-ECD-34-68-hIgGFc-His-S54A (human); experiment: as above
T10 construct: Used as HEK293 supernatant; also called S54A mutein

[11] = target: T11, TPP-2618, TweakR-ECD-34-68-hIgGFc-His-R56A (human); experiment: as above
T11 construct: Used as HEK293 supernatant; also called R56A mutein

[12] = target: T12, TPP-2619, TweakR-ECD-34-68-hIgGFc-His-R58A (human); experiment: as above
T12 construct: Used as HEK293 supernatant; also called R58A mutein

[13] = target: T13, TPP-2620, TweakR-ECD-34-68-hIgGFc-His-P59A (human); experiment: as above
T13 construct: Used as HEK293 supernatant; also called P59A mutein

[14] = target: T14, TPP-2621, TweakR-ECD-34-68-hIgGFc-His-H60A (human); experiment: as above
T14 construct: Used as HEK293 supernatant; also called H60A mutein

[15] = target: T15, TPP-2622, TweakR-ECD-34-68-hIgGFc-His-S61A (human); experiment: as above
T15 construct: Used as HEK293 supernatant; also called S61A mutein

[16] = target: T16, TPP-2623, TweakR-ECD-34-68-hIgGFc-His-D62A (human); experiment: as above
T16 construct: Used as HEK293 supernatant; also called D62A mutein

[17] = target: T17, TPP-2624, TweakR-ECD-34-68-hIgGFc-His-F63A (human); experiment: as above
T17 construct: Used as HEK293 supernatant; also called F63A mutein

[18] = target: T18, TPP-2625, TweakR-ECD-34-68-hIgGFc-His-L65A (human); experiment: as above
T18 construct: Used as HEK293 supernatant; also called L65A mutein

[19] = target: T19, TPP-2202, TWEAKR-ECD-28-80-hIgGFc-His (human); experiment: ELISA: TPP-2202 (TWEAKR 28-80-Fc) coated at 1 µg/ml; biotinylated IgG at 0.08 µg/ml (open bars) and 0.3 µg/ml (solid bars; legend of FIG. 3 prints 0.03); streptavidin-HRP, Amplex Red; Y = signal [Rfu]
T19 construct: also called TWEAKR-Fc fusion protein; full-length ectodomain Fc fusion
T19 sequence (chain, as listed by the source limits assumed): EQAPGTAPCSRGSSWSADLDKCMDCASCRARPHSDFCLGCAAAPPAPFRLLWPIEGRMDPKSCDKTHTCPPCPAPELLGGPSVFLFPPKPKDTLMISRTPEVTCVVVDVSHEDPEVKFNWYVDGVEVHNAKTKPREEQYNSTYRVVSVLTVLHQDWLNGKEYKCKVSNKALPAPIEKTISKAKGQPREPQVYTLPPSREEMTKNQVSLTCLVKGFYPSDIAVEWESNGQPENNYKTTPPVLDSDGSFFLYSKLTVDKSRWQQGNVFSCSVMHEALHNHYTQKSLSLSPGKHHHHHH
Method: FIG. 3: Interaction of the TWEAKR ectodomain with antibodies and reference antibodies. […] Detection was carried out using streptavidin-HRP and Amplex Red substrate.
Detection was carried out using streptavidin-HRP and Amplex Red substrate. IgGs were biotinylated using an about 2-fold molar excess of biotin-LC-NHS (Pierce; Cat. No. 21347) according to the instructions of the manufacturer and desalted using Zeba desalting columns (Pierce; Cat. No. 89889).

Measured: binding result

B1: P4A8(TPP-1324) (antibody, human IgG1, kappa, V domains shown)
VH: QVQLVQSGAEVKKPGASVKVSCKGSGYTFTDYGMHWVRQAPGQGLEWMGVISTYNGYTNYNQKFKGRVTMTVDKSTSTAYMELRSLRSDDTAVYYCARAYYGNLYYAMDYWGQGTLVTVSS
VL: DIVLTQSPASLAVSLGQRATISCRASKSVSTSSYSYMHWYQQKPGQPPKLLIKYASNLESGVPARFSGSGSGTDFSLNIHPMEEDDTAMYFCQHSRELPFTFGGGTKLEIKR
notes: Comparative antibody; variable domains from WO2009/140177 with human IgG1 constant region added
binds: [19]
no binding: [1] | [2] | [3] | [4] | [5] | [6] | [7] | [8] | [9] | [10] | [11] | [12] | [13] | [14] | [15] | [16] | [17] | [18]
